In PMC3562352:
Residue numbers refer to the chain shown, from its start. Like-named read-outs stand apart in the source and are kept apart here.

How the values were obtained:
Experiment in all cases: fluorescence anisotropy
MntR E11K [1] = target: T1, MntR E11K (Bacillus subtilis, UniProt P54512 1-142, E11K)
T1 sequence: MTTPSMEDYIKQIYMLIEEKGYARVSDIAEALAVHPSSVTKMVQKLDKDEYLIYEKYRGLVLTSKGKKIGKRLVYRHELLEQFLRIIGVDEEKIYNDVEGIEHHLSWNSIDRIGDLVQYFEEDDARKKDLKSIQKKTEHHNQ

MntR wild-type [2] = target: T2, MntR wild-type (Bacillus subtilis, UniProt P54512 1-142)
T2 sequence: T1 sequence with K11E

MntR E11K [3] = target: T1, MntR E11K; remark: listed apart in the source
MntR wild-type [4] = target: T2, MntR wild-type; remark: listed apart in the source

B1: mntH operator 21 bp (dsDNA)
DNA 1: GAGTTTCCTTAAGGCAAATTG
DNA 2: CAATTTGCCTTAAGGAAACTC
B1 gave a Kd (MntR E11K [1]) of 6.5 ± 1.3 nM, a Kd (MntR wild-type [2]) of 5.6 ± 0.8 nM and a Kd (MntR E11K [3]) of 2.4 ± 0.1 nM. The Kd (MntR wild-type [4]) was 6.5 ± 0.5 nM.
